Results: PMC7472637

How the values were obtained:
Assay in all cases: in vivo oligomerization (SDS-PAGE of cell lysates ± DTT, anti-FLAG Western blot)
[1] = molecular target: HapR, wild type, C-terminal FLAG-tagged (Vibrio cholerae)
[2] = molecular target: HapR-R37A, C-terminal FLAG-tagged (Vibrio cholerae)
[3] = molecular target: HapR-R37D, C-terminal FLAG-tagged (Vibrio cholerae)
[4] = molecular target: HapR-R37E, C-terminal FLAG-tagged (Vibrio cholerae)
[5] = molecular target: HapR-R37H, C-terminal FLAG-tagged (Vibrio cholerae)

Work on “HapR, wild type, C-terminal FLAG-tagged (natural protein)” yielded a stoichiometry N [1] of 2.

In the case of “HapR-R37A, C-terminal FLAG-tagged (natural protein)”, the stoichiometry N [2] is reported as 2.

“HapR-R37D, C-terminal FLAG-tagged (natural protein)” showed a stoichiometry N [3] of 2.

“HapR-R37E, C-terminal FLAG-tagged (natural protein)” showed a stoichiometry N [4] of 2.

“HapR-R37H, C-terminal FLAG-tagged (natural protein)” gave a stoichiometry N [5] of 2.
